According to patent publication US20120316071A1 (published 2012):
One block for each binder: values may come before it.

Legend:
[1] = target: T1, rHuman P-Cadherin/Fc Chimera, CF (R&D Systems Cat#861-PC) (human, UniProt P22223 108-654); assay: ECL Multispot (MSD), antigen spotted on plate, 10 nM Fab; blank spot of this well 214
T1 construct: Bought recombinant protein; not shown: Fc portion of the purchased chimera

[2] = target: T2, rHuman Erythropoietin R/Fc Chimera, CF (R&D Systems Cat#963-ER) (human, UniProt P19235 25-250); assay: as above
T2 construct: Bought recombinant protein; also called EPO R; EPO R/Fc; not shown: Fc portion of the purchased chimera
T2 sequence (looked up): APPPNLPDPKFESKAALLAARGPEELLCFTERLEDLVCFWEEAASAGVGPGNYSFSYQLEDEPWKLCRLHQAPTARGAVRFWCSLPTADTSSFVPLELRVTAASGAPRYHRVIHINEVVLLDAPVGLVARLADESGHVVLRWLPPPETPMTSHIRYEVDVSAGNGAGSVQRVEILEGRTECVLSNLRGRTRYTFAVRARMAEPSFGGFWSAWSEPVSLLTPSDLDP

[3] = target: T3, rHuman ErbB2/Fc Chimera, CF (R&D Systems Cat#1129-ER) (human, UniProt P04626 23-652); assay: as above
T3 construct: Bought recombinant protein; also called human epidermal growth factor 2 receptor; not shown: Fc portion of the purchased chimera

[4] = target: T4, rHuman EGF R/Fc Chimera, CF (R&D Systems Cat#344-ER) (human, UniProt P00533 25-645); assay: as above
T4 construct: Bought recombinant protein; also called epidermal growth factor receptor; not shown: Fc portion of the purchased chimera

[5] = target: T5, rHuman HGF R/c-MET/Fc Chimera, CF (R&D Systems Cat#358-MT/CF) (human, UniProt P08581 25-932); assay: as above
T5 construct: Bought recombinant protein; also called HGF R/Fc; hepatocyte growth factor receptor; not shown: Fc portion of the purchased chimera

[6] = target: T6, rHuman Notch-1/Fc Chimera, CF (R&D Systems Cat#3647-TK) (human, UniProt P46531 19-526); assay: as above
T6 construct: Bought recombinant protein; the chimera holds only a part of it; not shown: Fc portion of the purchased chimera

[7] = target: T7, rHuman CD44/Fc Chimera, CF (R&D Systems Cat#3660-CD) (human, UniProt P16070 21-220); assay: as above
T7 construct: Bought recombinant protein; not shown: Fc portion of the purchased chimera

[8] = target: T8, rHuman IGF-1 sR, CF (R&D Systems Cat#391-GR) (human, UniProt P08069 31-932); assay: as above
T8 construct: Bought recombinant soluble receptor; The column head prints only 'IGF-1'; also called insulin-like growth factor-1 soluble receptor

[9] = target: T1, rHuman P-Cadherin/Fc Chimera, CF (R&D …); assay: ECL Multispot (MSD), antigen spotted on plate, 10 nM Fab; blank spot of this well 306
[10] = target: T2, rHuman Erythropoietin R/Fc Chimera, CF …; assay: as above
[11] = target: T3, rHuman ErbB2/Fc Chimera, CF (R&D …); assay: as above
[12] = target: T4, rHuman EGF R/Fc Chimera, CF (R&D …); assay: as above
[13] = target: T5, rHuman HGF R/c-MET/Fc Chimera, CF (R&D …); assay: as above
[14] = target: T6, rHuman Notch-1/Fc Chimera, CF (R&D …); assay: as above
[15] = target: T7, rHuman CD44/Fc Chimera, CF (R&D Systems …); assay: as above
[16] = target: T8, rHuman IGF-1 sR, CF (R&D Systems …); assay: as above
[17] = target: T9, rHuman IGF-1 sR, CF (R&D Systems Cat#391-GR) (human, UniProt P08069 31-932); assay: ECL Multispot (MSD), 10 nM Fab; blank 219
T9 construct: Bought soluble receptor; also called insulin-like growth factor-1 soluble receptor

[18] = target: T10, rHuman P-Cadherin/Fc Chimera, CF (R&D Systems Cat#861-PC) (human, UniProt P22223 108-654); assay: ECL Multispot (MSD), 10 nM Fab; blank 219
T10 construct: Bought reagent; Fc part of the bought chimera not given

[19] = target: T11, rHuman Erythropoietin R/Fc Chimera, CF (R&D Systems Cat#963-ER) (human, UniProt P19235 25-250); assay: ECL Multispot (MSD), 10 nM Fab; blank 219
T11 construct: Bought reagent; also called EPO R; EPO R/Fc; Fc part of the bought chimera not given
T11 sequence (looked up): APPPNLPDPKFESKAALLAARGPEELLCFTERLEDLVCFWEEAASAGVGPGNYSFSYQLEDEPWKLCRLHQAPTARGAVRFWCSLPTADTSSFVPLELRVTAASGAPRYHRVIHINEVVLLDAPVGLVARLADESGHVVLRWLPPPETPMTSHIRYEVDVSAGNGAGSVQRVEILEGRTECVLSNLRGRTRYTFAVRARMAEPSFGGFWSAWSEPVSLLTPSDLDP

[20] = target: T12, rHuman ErbB2/Fc Chimera, CF (R&D Systems Cat#1129-ER) (human, UniProt P04626 23-652); assay: ECL Multispot (MSD), 10 nM Fab; blank 219
T12 construct: Bought reagent; also called human epidermal growth factor 2 receptor; Fc part of the bought chimera not given

[21] = target: T13, rHuman EGF R/Fc Chimera, CF (R&D Systems Cat#344-ER) (human, UniProt P00533 25-645); assay: ECL Multispot (MSD), 10 nM Fab; blank 219
T13 construct: Bought reagent; also called epidermal growth factor receptor; Fc part of the bought chimera not given

[22] = target: T14, rHuman HGF R/c-MET/Fc Chimera, CF (R&D Systems Cat#358-MT/CF) (human, UniProt P08581 25-932); assay: ECL Multispot (MSD), 10 nM Fab; blank 219
T14 construct: Bought reagent; also called HGF R/Fc; hepatocyte growth factor receptor; Fc part of the bought chimera not given

[23] = target: T15, rHuman Notch-1/Fc Chimera, CF (R&D Systems Cat#3647-TK) (human, UniProt P46531 19-526); assay: ECL Multispot (MSD), 10 nM Fab; blank 219
T15 construct: Bought reagent; Fc part of the bought chimera not given

[24] = target: T16, rHuman CD44/Fc Chimera, CF (R&D Systems Cat#3660-CD) (human, UniProt P16070 21-220); assay: ECL Multispot (MSD), 10 nM Fab; blank 219
T16 construct: Bought reagent; Fc part of the bought chimera not given

- ECL signal [1]: 152
- ECL signal [2]: 179
- ECL signal [3]: 202
- ECL signal [4]: 138
- ECL signal [5]: 190
- ECL signal [6]: 189
- ECL signal [7]: 199
- ECL signal [8]: 190
- ECL signal [9]: 422
- ECL signal [10]: 312
- ECL signal [11]: 378
- ECL signal [12]: 277
- ECL signal [13]: 317
- ECL signal [14]: 370
- ECL signal [15]: 262
- ECL signal [16]: 207
B1: Fab VH1-46_IGHD6-6*01_IGHJ1*01 S102A/S103P/S104F (APF) & L6_IGKJ1*01 (Fab, V domains shown)
VH: QVQLVQSGAEVKKPGASVKVSCKASGYTFTSYYMHWVRQAPGQGLEWMGIINPSGGSTSYAQKFQGRVTMTRDTSTSTVYMELSSLRSEDTAVYYCAREEYAPFSAEYFQHWGQGTLVTVSS
VL: not shown
notes: Tested as a Fab expressed in E. coli: the heavy chain from Plasmid A (CH1, His6 and Flag tags), the kappa light chain from Plasmid C (CL kappa); also called H:APF & L:wt; APF triple mutant

- ECL signal [17]: 312
- ECL signal [18]: 308
- ECL signal [19]: 204
- ECL signal [20]: 189
- ECL signal [21]: 226
- ECL signal [22]: 212
- ECL signal [23]: 156
- ECL signal [24]: 192
B2: Fab VH1-46_IGHD6-6*01_IGHJ1*01 S102A/S103P/S104F A106E & L6_IGKJ1*01 (Fab, V domains shown)
VH: QVQLVQSGAEVKKPGASVKVSCKASGYTFTSYYMHWVRQAPGQGLEWMGIINPSGGSTSYAQKFQGRVTMTRDTSTSTVYMELSSLRSEDTAVYYCAREEYAPFSEEYFQHWGQGTLVTVSS
VL: not shown
notes: Tested as a Fab (CH1 with His6/Flag tags, kappa CL); also called APF A106E
